We go through 29 molecules from patent publication US20240174716A1 (VACINO BIOTECH, published 2024).

T1 sequence (P02786 89-760 limits assumed): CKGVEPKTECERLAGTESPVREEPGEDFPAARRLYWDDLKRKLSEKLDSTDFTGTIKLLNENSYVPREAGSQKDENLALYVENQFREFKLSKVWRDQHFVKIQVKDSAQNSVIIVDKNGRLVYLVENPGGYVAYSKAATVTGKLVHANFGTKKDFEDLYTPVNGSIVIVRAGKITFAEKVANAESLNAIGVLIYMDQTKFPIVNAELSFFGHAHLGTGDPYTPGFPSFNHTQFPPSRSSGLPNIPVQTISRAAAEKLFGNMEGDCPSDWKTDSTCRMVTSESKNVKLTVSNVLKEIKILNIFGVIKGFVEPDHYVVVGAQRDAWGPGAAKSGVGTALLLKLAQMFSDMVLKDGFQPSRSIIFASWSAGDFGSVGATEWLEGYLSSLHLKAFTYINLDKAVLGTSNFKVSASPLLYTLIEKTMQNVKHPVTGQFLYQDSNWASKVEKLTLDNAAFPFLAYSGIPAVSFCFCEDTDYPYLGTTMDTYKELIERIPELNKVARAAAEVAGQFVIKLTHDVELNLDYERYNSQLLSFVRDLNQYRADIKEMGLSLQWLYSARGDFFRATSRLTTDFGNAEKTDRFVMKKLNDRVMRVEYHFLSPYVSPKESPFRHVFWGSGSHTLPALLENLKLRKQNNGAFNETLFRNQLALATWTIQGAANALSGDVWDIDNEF

The experiment concerns the target T1, TfR protein (Acro Biosystems. Cat. No. CD1-H5243) (UniProt P02786 89-760).
T1 construct: Bought recombinant protein; also called TfR1; transferrin receptor
As to the kind of experiment: FOPPR (fiber optic particle plasmon resonance); peptide coupled to chip, TfR protein loaded at 0.5-1000 ng/mL. The method, then:
In this Example, the binding affinity of the transporter peptides disclosed herein to TfR was analyzed by fiber optic particle plasmon resonance (FOPPR). In this Example, different amino acid sites of the transporter peptide were further substituted with different amino acids of the same property to anaylze binding affinity of these variant peptides to the transferrin receptor.
To determine the affinity of the targeting peptide to TfR1, a fiber optic particle plasmon resonance (FOPPR) affinity study was performed according to the manufacturer's instruction. Briefly, 80 μL of tested peptide (10 μg/ml) dissolved in PBS buffer (pH 7.4) was pipetted into the EDC/NHS preactivated surface of standard chip NanoAu-MM (Taipei, Taiwan) for peptide conjugating to the carboxyl group of the surface sensor chip. TfR protein (Acro Biosystems. Cat. No. CD1-H5243, Newark, DE, USA) was loading to the chip with at the concentrations of 0.5 ng/mL, 1 ng/mL, 10 ng/mL, 100 ng/mL, 500 ng/mL, and 1000 ng/mL, respectively. Based on the light intensity change, the molecules interaction parameters of KD were calculated by the FOPPR system D200 (Id M3) (Taipei, Taiwan).
As for DISVLMKEYD (10-mer; also called transporter peptide) [PT-001], the Kd came to 71 nM. DIHVLMKEYD (10-mer; also called transporter peptide) [PT-008]: the Kd turned out to be 8.07 nM. Take DISVLMKESD (10-mer; also called transporter peptide) [PT-056]: the Kd is 4.1 nM. The molecule DISVLEKEYD (10-mer; also called transporter peptide) [PT-029] yielded an equilibrium dissociation constant (Kd) of 3.62 nM. For the molecule DISVLMKETD (10-mer; also called transporter peptide) [PT-057], the affinity, expressed as Kd, was 1.92 nM. In the case of DISVLMKHYD (10-mer; also called transporter peptide) [PT-065], the affinity, expressed as Kd, was 0.57 nM. The figure for DISVLQKEYD (10-mer; also called transporter peptide) [PT-030] is 10.3 nM. DILVLMKEYD (10-mer; also called transporter peptide) [PT-011] returned a Kd of 3.23 nM. Molecule DISVIMKEYD (10-mer; also called transporter peptide) [PT-023] had a dissociation constant (Kd) of 22.8 nM. Consider DITVLMKEYD (10-mer; also called transporter peptide) [PT-017], for which the affinity, expressed as Kd, was 4.77 nM. DISVLNKEYD (10-mer; also called transporter peptide) [PT-026] gave a dissociation constant (Kd) of 26 nM. DISVVMKEYD (10-mer; also called transporter peptide) [PT-024]: the Kd was 8.22 nM. Molecule DISLLMKEYD (10-mer; also called transporter peptide) [PT-022] displayed a Kd of 36.6 nM. The figure for DIDVLMKEYD (10-mer; also called transporter peptide) [PT-004] is 18.5 nM; for DISVLCKEYD (10-mer; also called transporter peptide) [PT-027] it is 0.27 nM; for NISVLMKEYD (10-mer; also called transporter peptide) [PT-062] it is 1.3 nM. On to DISVLLKEYD (10-mer; also called transporter peptide) [PT-064], for which binding was put at a Kd of 10.5 nM. As for DISVLDKEYD (10-mer; also called transporter peptide) [PT-025], the Kd is 0.43 nM. The molecule DISVLMKEYQ (10-mer; also called transporter peptide) [PT-034] had a dissociation constant Kd of 39.3 nM. With DISVLKKEYD (10-mer; also called transporter peptide) [PT-028], the Kd was 5.14 nM.

In turn, DISELMKEYD (10-mer; also called transporter peptide) [PT-063] registered a dissociation constant (Kd) of 16.6 nM. Next, DIHVLDKEYD (10-mer; also called transporter peptide) [PT-067]: 0.45 nM; DIPVLMKEYD (10-mer; also called transporter peptide) [PT-014]: 52.3 nM. For DISVLMKEYE (10-mer; also called transporter peptide) [PT-033], the Kd is 261 nM.

Regarding DISVLMKEYN (10-mer; also called transporter peptide) [PT-031], the Kd was found to be 4.45 nM. For DISVLMKEFD (10-mer; also called transporter peptide) [PT-055], the Kd was found to be 6.08 nM. Turning to DISVLMKDYD (10-mer; also called transporter peptide) [PT-054], the Kd turned out to be 59.3 nM. In turn, DISVLSKEYD (10-mer; also called transporter peptide) [PT-051] displayed a Kd of 70 nM.

DITVLCKEYN (10-mer; also called transporter peptide) [PT-066] came in with a dissociation constant (Kd) of 86.1 nM.
